The results in this text go back to patent publication US20030040012A1 (published 2003).

The target of one assay is T1, NpwBP (Homo sapiens (Human), UniProt Q9Y2W2 1-641).
T1 construct: Expressed inside COS7 cells, without an added protein A because it has its own nuclear localization signal
T1 sequence: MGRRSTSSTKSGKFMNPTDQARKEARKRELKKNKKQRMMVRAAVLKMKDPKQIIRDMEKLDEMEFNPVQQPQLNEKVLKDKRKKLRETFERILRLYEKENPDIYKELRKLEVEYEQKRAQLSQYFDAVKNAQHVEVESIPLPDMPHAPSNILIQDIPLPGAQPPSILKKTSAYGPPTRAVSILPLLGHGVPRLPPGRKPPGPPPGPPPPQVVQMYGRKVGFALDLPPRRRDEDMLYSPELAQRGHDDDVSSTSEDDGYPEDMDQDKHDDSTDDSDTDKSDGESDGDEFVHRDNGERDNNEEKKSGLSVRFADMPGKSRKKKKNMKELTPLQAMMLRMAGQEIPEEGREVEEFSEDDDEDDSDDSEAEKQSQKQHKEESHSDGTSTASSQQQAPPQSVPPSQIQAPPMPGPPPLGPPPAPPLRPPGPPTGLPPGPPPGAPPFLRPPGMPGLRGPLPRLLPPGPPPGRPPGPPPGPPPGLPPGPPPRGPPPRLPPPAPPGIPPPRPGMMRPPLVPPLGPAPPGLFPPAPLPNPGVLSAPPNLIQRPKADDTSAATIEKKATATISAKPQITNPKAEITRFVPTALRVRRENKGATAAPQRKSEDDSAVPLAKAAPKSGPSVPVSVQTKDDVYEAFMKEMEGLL
Description: competition by co-expression in COS7 cells, GFP localization.

Assay [1] deals with T2, fusion protein NpwBP(P2)-GFP (UniProt P42212 1-238 = GFP, limits assumed).
T2 construct: Expressed inside COS7 cells from pKA1-NpwBP(P2)-GFP; also called NpwBP-GFP
Description: co-expression in COS7 cells, fluorescence microscopy of GFP localization. How it is done:
After the medium was removed, the cell sur were washed with a phosphate buffer solution (PBS), and then further washed with a 50 mM Tris-HCl (pH 7.5)-containing DMEM. To these cells, added was a suspension comprising 1 μl of a plasmid suspension, 0.6 ml of DMEM and 3 μl of […]™ (from IBF), and incubated in the presence of 5% CO₂ at 37° C. for 12 hours. Then, the cells were washed with PBS, and fixed with 4% peraformaldehyde-containing PBS at room temperature for 10 minutes. The thus-fixed cells were washed with PBS, then treated with 0.2% Triton X-100, and thereafter blocked with 5% milk PBS. […]
First, pKA1-NpwBP(P1)-GFP or pKA1-NpwBP(P2)-GFP was singly introduced into COS7 cells, and the localization of these fusion proteins in the cells was checked through fluorescence microscopy based on the green fluorescence of GFP as the index thereof. […] Next, along with these NpwBP-GFP fusion protein expression vectors, an Npw38 expression vector, pKA1-Npw38 was introduced into COS7 cells, and the green fluorescence was localized in the nucleus of each cell (FIG. 3b). […] On the other hand, when Npw38(W52A) (A. Komuro et al., Nucl. Acids Res., 27: 1957-1965, 1999), which is a WW domain variant of Npw38, was expressed in the cells in place of HA-Npw38, or when GFP was expressed in the cells in place of NpwBP-GFP, no intranuclear localization of the green fluorescence was found.

B1: fusion protein HA-Npw38 (other)
chain: MPLPVALQTRLAKRGILKHLEPEPEEEIIAEDYDDDPVDYEATRLEGLPPSWYKVFDPSCGLPYYWNADTDLVSWLSPHDPNSVVTKSAKKLRSSNADAEEKLDRSHDKSDRGHDKSDRSHEKLDRGHDKSDRGHDKSDRDRERGYDKVDRERERDRERDRDRGYDKADREEGKERRHHRREELAPYPKSKKAVSRKDEELDPMDPSSYSDAPRGTWSTGLPKRNEAKTGADTTAAGPLFQQRPYPSPGAVLRANAEASRTKQQD
notes: All are treated as the same molecule; not shown: HA tag (protein A of fusion A-X)
For the molecule B1, the binding result (in the assay with NpwBP; in assay [1]) was “binds” each time.

B2: Npw38(W52A), a WW domain variant of Npw38 (other)
chain: MPLPVALQTRLAKRGILKHLEPEPEEEIIAEDYDDDPVDYEATRLEGLPPSAYKVFDPSCGLPYYWNADTDLVSWLSPHDPNSVVTKSAKKLRSSNADAEEKLDRSHDKSDRGHDKSDRSHEKLDRGHDKSDRGHDKSDRDRERGYDKVDRERERDRERDRDRGYDKADREEGKERRHHRREELAPYPKSKKAVSRKDEELDPMDPSSYSDAPRGTWSTGLPKRNEAKTGADTTAAGPLFQQRPYPSPGAVLRANAEASRTKQQD
notes: Expressed in COS7 cells in place of HA-Npw38
B2: the binding result in assay [1] was “no binding”.
